Laboratory results: patent US20150299313A1 (Chugai, published 2015)

T1: soluble human IL-6 receptor (human, UniProt P08887 20-357)
T1 construct: also called hsIL-6R; hIL6R
T1 sequence: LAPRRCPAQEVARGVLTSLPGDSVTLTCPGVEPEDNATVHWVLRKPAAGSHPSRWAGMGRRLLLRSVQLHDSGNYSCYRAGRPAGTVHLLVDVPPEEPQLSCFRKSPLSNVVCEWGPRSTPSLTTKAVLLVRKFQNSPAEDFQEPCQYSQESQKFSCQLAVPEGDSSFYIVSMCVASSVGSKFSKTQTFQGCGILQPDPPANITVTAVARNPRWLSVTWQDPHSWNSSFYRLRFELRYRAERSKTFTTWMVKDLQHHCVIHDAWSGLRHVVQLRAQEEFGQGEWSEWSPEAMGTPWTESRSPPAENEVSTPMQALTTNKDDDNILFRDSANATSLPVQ


Key:
[1] = biological target: T1, soluble human IL-6 receptor; assay: SPR (Biacore T100), 3 uM CaCl2, pH 7.4, 37 C; roughly calculated by Req=C*Rmax/(KD+C)+RI; 3 µM CaCl2; KD estimated by Expression 1
[2] = biological target: T1, soluble human IL-6 receptor; assay: SPR (Biacore T100), pH 7.4, 37 C
Procedure: (§1) All samples were measured at 37° C.
(§2) Individual parameters were calculated by use of Biacore T100 Evaluation Software (GE Healthcare).

[3] = biological target: T1, soluble human IL-6 receptor; assay: SPR (Biacore T100), 3 uM CaCl2, pH 7.4, 37 C (summary table)
Procedure: as §1
From the sensorgram obtained by measurement, an association constant, ka (1/Ms) and a dissociation constant kd (1/s) as kinetics parameters were computationally obtained. From the values, KD (M) of each antibody to a human IL-6 receptor was calculated. Individual parameters were calculated by use of Biacore T100 Evaluation Software (GE Healthcare).
as §2

[4] = biological target: T1, soluble human IL-6 receptor; assay: SPR (Biacore T100), antibody captured on anti-human IgG F(ab')2, human IL-6 receptor as analyte, 37 C, pH 7.4
Procedure: (§3) Then, kinetic analysis of an antigen-antibody reaction between each of GL1-M111-SA (−) and GL5-M111-SA (−) and a human IL-6 receptor was performed by using Biacore T100 (GE Healthcare). In both cases, measurement was performed by using an antibody treated with sialidase as a sample. An appropriate amount of Anti-Human IgG (γ-chain specific) F(ab′)2 fragment antibody produced in goat (Sigma) was immobilized onto Sensor chip CM5 (GE Healthcare) in accordance with the amine coupling method and then a target antibody was allowed to capture. Subsequently, a human IL-6 receptor dilution solution and a running buffer (a blank) were injected at a flow rate of 20 μL/min for 3 minutes to allow the human IL-6 receptor to interact with the antibody captured on the sensor chip. Either one of two types of running buffers pH 7.4 and pH 6.0 containing 10 mmol/L ACES, 150 mmol/L NaCl, and 0.05% (w/v) Tween20 was used, and each buffer was employed for dilution of IL-6R. Thereafter, a running buffer was fed at a flow rate 20 μL/min for 5 minutes. After dissociation of the IL-6 receptor was observed, 10 mmol/L Glycine-HCl (pH 1.5) was injected at a flow rate 30 μL/min for 5 seconds. […] All samples were measured at 37° C. […] From the values, KD (M) of each antibody to a human IL-6 receptor was calculated. Individual parameters were calculated by use of Biacore T100 Evaluation Software (GE Healthcare).

[5] = biological target: T1, soluble human IL-6 receptor; assay: SPR (Biacore T100), antibody captured on protein A, human IL-6 receptor as analyte, 37 C, pH 7.4
Procedure: (§4) Kinetic analysis on the antigen-antibody reaction between each of GL1-IgG1-SA (−), GL1-M111-SA (−), GL2-M111-SA (−), GL3-M111-SA (−), GL4-M111-SA (−), GL5-M111-SA (−), GL6-M111-SA (−), GL7-M111-SA (−), GL8-M111-SA (−), GL9-M111-SA (−), GL10-M111-SA (−) and a human IL-6 receptor was performed by use of Biacore T100 (GE Healthcare). An appropriate amount of protein A (Invitrogen) was immobilized onto Sensor chip CM5 (GE Healthcare) by the amine coupling method and then a target antibody was allowed to capture. Subsequently, a human IL-6 receptor dilution solution and a running buffer (a blank) were injected at a flow rate of 20 μL/min for 3 minutes to allow the human IL-6 receptor to interact with the antibody captured on the sensor chip. Either one of two types of running buffers pH 7.4 and pH 6.0 containing 10 mmol/L ACES, 150 mmol/L NaCl, and 0.05% (w/v) Tween20 was used and each buffer was employed for dilution of IL-6R. Thereafter, the running buffer was fed at a flow rate of 20 μL/min for 5 minutes. After observation of dissociation of the IL-6 receptor, 10 mmol/L Glycine-HCl (pH 1.5) was injected at a flow rate of 30 μL/min for 30 seconds to regenerate the sensor chip. All samples were measured at 37° C. From the sensorgram obtained by measurement, an association constant, ka (1/Ms) and a dissociation constant, kd (1/s) as kinetics parameters were computationally obtained. Based on the obtained values, KD (M) of each antibody to a human IL-6 receptor was calculated. Individual parameters were calculated by use of Biacore T100 Evaluation Software (GE Healthcare).

[6] = biological target: T1, soluble human IL-6 receptor; assay: SPR (Biacore T100), antibody captured on anti-human IgG F(ab')2, human IL-6 receptor as analyte, 37 C, pH 6.0
Procedure: as §3

[7] = biological target: T1, soluble human IL-6 receptor; assay: SPR (Biacore T100), antibody captured on protein A, human IL-6 receptor as analyte, 37 C, pH 6.0
Procedure: as §4

[8] = biological target: T1, soluble human IL-6 receptor; assay: SPR (Biacore T100), antibody captured on anti-human IgG F(ab')2, human IL-6 receptor as analyte, 37 C, pH 6.0; remark: listed apart in the source
Procedure: (§5) Using Biacore T100 (GE Healthcare), kinetic analysis of antigen-antibody reactions between each of GL1-IgG1_kif+ and GL5-IgG1_kif+ and a human IL-6 receptor was performed. An appropriate amount of Anti-Human IgG (γ-chain specific) F(ab′)2 fragment antibody produced in goat (Sigma) was immobilized onto Sensor chip CM5 (GE Healthcare) by the amine coupling method and then a target antibody was allowed to capture. Subsequently, a human IL-6 receptor dilution solution and a running buffer (a blank) were injected at a flow rate of 20 μL/min for 3 minutes to allow the human IL-6 receptor to interact with the antibody captured on the sensor chip. Either one of two types of running buffers (pH 7.4 and pH 6.0 containing 10 mmol/L ACES, 150 mmol/L NaCl, and 0.05% (w/v) Tween20) was used, and each buffer was employed for dilution of IL-6R. Thereafter, a running buffer was fed at a flow rate 20 μL/min for 5 minutes. After dissociation of the IL-6 receptor was observed, a 10 mmol/L Glycine-HCl (pH 1.5) solution was injected at a flow rate of 30 μL/min for 5 seconds. This procedure was repeated five times to regenerate the sensor chip. All samples were measured at 37° C. […] From the values, KD (M) of each antibody to a human IL-6 receptor was calculated. Individual parameters were calculated by use of Biacore T100 Evaluation Software (GE Healthcare).

[9] = biological target: T1, soluble human IL-6 receptor; assay: SPR (Biacore T100), antibody captured on anti-human IgG F(ab')2, human IL-6 receptor as analyte, 37 C, pH 7.4; remark: listed apart in the source
Procedure: as §5

Binder	Kd [1] [nM]	Ca dependency (KD at 3 uM CaCl2 against KD at 2 mM CaCl2) [2] [fold]	Kd [3] [nM]	Kd [4] [nM]	Kd [5] [nM]	Kd [6] [nM]	Kd [7] [nM]	Kd [8] [nM]	Kd [9] [nM]
FH4-IgG1 (antibody, V domains shown, Ca-dependent anti-IL-6R antibody from a human phage library) VH: QVQLVQSGAEVKKPGSSVKVSCKASGGTFSSYAISWVRQAPGQGLEWMGGIIPIFGTANYAQKFQGRVTITADESTSTAYMELSSLRSEDTAVYYCARERDYYDSSGYYDAFDIWGQGTMVTVSS VL: ETTVTQSPSFLSASVGDRVTITCITTTDIDDDMNWFQQEPGKAPKLLISEGNILRPGVPSRFSSSGYGTDFTLTISKLQPEDFATYYCLQSDNLPFTFGQGTKLEIKR	~34000	≥ 60	≥ 34000						
6RL#9-IgG1 (antibody, V domains shown, Ca-dependent anti-IL-6R antibody from a human phage library) VH: QVQLVQSGAEVKKPGASVKVSCKASGYTFTSYYMHWVRQAPGQGLEWMGIINPSGGSTSYAQKFQGRVTMTRDTSTSTVYMELSSLRSEDTAVYYCARDDPGGGEYYFDYWGQGTLVTVSS VL: QSVLTQPPSVSGAPGQRVTISCTGSRSNMGAGYDVHWYQLLPGAAPKLLISHNTHRPSGVPDRFSGSKSGASASLAITGLQAEDEADYYCQSHDSSLSAVVFGGGTKLTVLS	~31000	≥ 120	≥ 31000						
GL1-M111-SA (-) (antibody, human IgG1, kappa, N297A, No sugar chain on heavy or light chain; treated with neuraminidase) heavy: not shown light: DIQMTQSPSSLSASVGDSVTITCQASTDISSHLNWYQQKPGKAPELLIYYGSHLLSGVPSRFSGSGSGTDFTFTISSLEAEDAATYYCGQGNRLPYTFGQGTKVEIERTVAAPSVFIFPPSDEQLKSGTASVVCLLNNFYPREAKVQWKVDNALQSGNSQESVTEQDSKDSTYSLSSTLTLSKADYEKHKVYACEVTHQGLSSPVTKSFNRGEC				2	1.8	66	150		
GL5-M111-SA (-) (antibody, human IgG1, kappa, N297A, two N-linked complex sugar chains (G2/G3/G4 combinations) at the sites introduced by Thr 20 to Asn and Gln 24 to Asn (Kabat), sialic acid removed, terminal galactose exposed, Treated with neuraminidase) heavy: not shown light: DIQMTQSPSSLSASVGDNVTITCNASTDISSHLNWYQQKPGKAPELLIYYGSHLLSGVPSRFSGSGSGTDFTFTISSLEAEDAATYYCGQGNRLPYTFGQGTKVEIERTVAAPSVFIFPPSDEQLKSGTASVVCLLNNFYPREAKVQWKVDNALQSGNSQESVTEQDSKDSTYSLSSTLTLSKADYEKHKVYACEVTHQGLSSPVTKSFNRGEC				1.9	1.5	57	99		
GL5-IgG1_kif+ (antibody, two high mannose N-linked sugar chains (Man6-Man9 with Man9) on the light chain; high mannose sugar chain (expressed in the presence of kifunensine), Expressed with 10 ug/mL kifunensine in the culture; also called GL5-G1_kif+) heavy: not shown light: DIQMTQSPSSLSASVGDNVTITCNASTDISSHLNWYQQKPGKAPELLIYYGSHLLSGVPSRFSGSGSGTDFTFTISSLEAEDAATYYCGQGNRLPYTFGQGTKVEIERTVAAPSVFIFPPSDEQLKSGTASVVCLLNNFYPREAKVQWKVDNALQSGNSQESVTEQDSKDSTYSLSSTLTLSKADYEKHKVYACEVTHQGLSSPVTKSFNRGEC								66	1.4
GL1-IgG1_kif+ (antibody, high mannose sugar chain (expressed in the presence of kifunensine), Expressed with 10 ug/mL kifunensine in the culture; also called GL1-G1_kif+) heavy: not shown light: DIQMTQSPSSLSASVGDSVTITCQASTDISSHLNWYQQKPGKAPELLIYYGSHLLSGVPSRFSGSGSGTDFTFTISSLEAEDAATYYCGQGNRLPYTFGQGTKVEIERTVAAPSVFIFPPSDEQLKSGTASVVCLLNNFYPREAKVQWKVDNALQSGNSQESVTEQDSKDSTYSLSSTLTLSKADYEKHKVYACEVTHQGLSSPVTKSFNRGEC								71	1.5
